# Source: IntAct's records for PubMed 23035120
# B1: Protein kinase C and casein kinase substrate in neurons protein 1 (Mus musculus), Q61644 (parent)
# chain: MSGSYDEASEEITDSFWEVGNYKRTVKRIDDGHRLCNDLMSCVQERAKIEKAYAQQLTDWAKRWRQLIEKGPQYGSLERAWGAMMTEADKVSELHQEVKNSLLNEDLEKVKNWQKDAYHKQIMGGFKETKEAEDGFRKAQKPWAKKMKELEAAKKAYHLACKEERLAMTREMNSKTEQSVTPEQQKKLVDKVDKCRQDVQKTQEKYEKVLEDVGKTTPQYMEGMEQVFEQCQQFEEKRLVFLKEVLLDIKRHLNLAENSSYMHVYRELEQAIRGADAQEDLRWFRSTSGPGMPMNWPQFEEWNPDLPHTTAKKEKQPKKAEGATLSNATGAVESTSQAGDRGSVSSYDRGQTYATEWSDDESGNPFGGNEANGGANPFEDDAKGVRVRALYDYDGQEQDELSFKAGDELTKLGEEDEQGWCRGRLDSGQLGLYPANYVEAI
# Variants of: B1
# Conditions: with Mapt
row,effect of a mutation on the interaction,Variant
1,disrupting interaction,P434L
